Patent publication US6770740B1, “Crosslinked DNA condesate compositions and gene delivery methods” (The Regents of the University of Michigan, priority 1999, dated 2004)
Where no end group is shown, it is not given here. The star is where a group is joined. Carboxymethyl = O=C(O)C*

Assays:
[1] = QELS particle size and zeta potential of cross-linking peptide DNA condensates, Example 5; format: physicochemical; settings: for Particle Size Mean Diameter, Oxidized, 15° / Particle Size Mean Diameter, Oxidized, 90°: HBM after 2 h incubation, 50 μg/ml DNA, 0.4 nmol peptide per μg DNA; for Particle Size Mean Diameter, Oxidized, 15°: scattering angle 15°; for Particle Size Mean Diameter, Oxidized, 90°: scattering angle 90°; for Particle Size Mean Diameter, Saline: HBM with added saline (0.15 M) after 15 min; for Particle Size Mean Diameter, Reduced: following addition of TCEP (1 mM)
Method in brief: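 Condensates at 50 μg/ml DNA in HBM, 0.4 nmol peptide per μg DNA (charge ratio ~2:1); size by QELS at 15° and 90°, mean diameter from diffusion coefficient by unimodal cumulant analysis. Peptide IV series: 7.5-37.5 nmol peptide with 75 μg DNA, charge ratio 0.5-2.5; zeta potential averaged over 10 determinations.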

[2] = Shear stress stability of cross-linked DNA condensates (salt sonication), Example 5; format: physicochemical; settings: 30 sec sonication; highest lane 2.5 M
Protocol: Peptide DNA condensates (200 μl of 50 μg/ml) were formed and incubated at RT for 30 min and then combined with 0 to 200 μl of 5 M sodium chloride and normalized to 400 μl with HBM to achieve a final sodium chloride concentration of 0, 0.2, 0.4, 0.8, 1.0, 1.5, 2.0, and 2.5 M. Each sample was sonicated for 30 sec with a 100 W Microson™ XL-2000 ultrasonic probe homogenizer (Kontes, Vineland N.J.) with a vibrational amplitude of 6 to fragment uncondensed DNA (Adami et al., 1998). DNA condensates were digested with 30 μg of trypsin for 12 h at 37° C. then electrophoresed on an agarose gel and visualized by ethidium bromide staining.

COS 7 cells = test: Luciferase reporter gene expression in COS 7 cells, Example 5; format: cell-based
HepG2 cells = test: Cell uptake of 125I-DNA condensates in HepG2 cells, Example 5; format: cell-based; settings: HepG2, 5 h transfection
Protocol: Iodinated plasmid DNA (pCMVL) was prepared with specific activity of 300 nCi per μg of DNA as described previously (Terebesi et al., 1998). Prior to forming DNA condensates, the specific activity of the ^125I DNA was adjusted to 4.5 nCi μg of DNA by combining with unlabeled plasmid. DNA condensates were prepared using AlkCWK18 or peptide II as described above. Peptide ^125I-DNA condensates (10 μg) were used to transfect HepG2 and COS 7 cells for 5 h according to the procedure described above. The radioactive media was removed, cells were washed once with 2 ml of 1 M sodium chloride and three times with 2 ml of cold PBS and then harvested with 1 ml of lysis buffer. The cell-associated radioactivity from triplicate transfections was quantified by gamma counting.

[3] = Shear stress stability (salt sonication assay), Example 6; format: physicochemical; settings: 30 sec sonication; highest tested 2.5 M
Protocol: The relative stability of peptide DNA condensates were examined using a salt sonication assay (Adami and Rice, 1999). Peptide DNA condensates (200 μl of 50 μg/ml) were formed as described above, incubated at RT for 30 min and then combined with 0-200 μl of 5 m […] and normalized to 400 μl with HBM to achieve a final sodium chloride concentration of 0, 0.2, 0.4, 0.8, 1.0, 1.5, 2.0 and 2.5 M. Each sample was sonicated for 30 sec with a 100 W Microson™ XL-2000 ultrasonic probe homogenizer (Kontes, Vineland N.J.) with a vibrational amplitude of 5 fragment uncondensed DNA. DNA condensates were digested with 30 μg to trypsin for 12 h at 37° C., electrophoresed on a 1% agarose gel electrophoresed in TEA buffer for 2 h, then visualized by ethidium bromide staining and destaining prior to photography on a transilluminator.

[4] = QELS particle size and zeta potential of peptide DNA condensates, Example 6; format: physicochemical; settings: charge ratio 4:1, 50 μg/ml DNA in HBM; for Particle Size (nm): 90°, average and SD of three, No particles formed; for Zeta Potential (mV): average and SD of ten
Protocol: The particle size and zeta potential of peptide DNA condensates were determined by quasielastic light scattering (QELS) using a Brookhave ZetaPlus™. Particle size analysis was performed in triplicate at a DNA concentration of 50 μg/ml in HBM at a charge ratio of 4:1 and a scattering angle of 90°. Data analysis utilized a multimodal volume distribution option included with the instrument. Zeta potential was also determined using 50 μg/ml peptide DNA condensates prepared at a 4:1 charge ratio in HBM. The reported zeta potential was averaged from ten determinations.

[5] = system: HepG2, COS 7 and CHO cells; test: Luciferase gene expression, result stated for each of three cell lines, Example 6; format: cell-based
Protocol: HepG2 cells (1.5×10^5) were plated on 6×35 mm wells and grown to 50% confluencey in MEM supplemented with 10% FBS, penicillin and streptomycin (100 U/ml), sodium pyruvate (100 mM), and L-glutamine (2 mM). Transfections were performed in MEM (2 ml per 35 mm well) with 2% FBS with and without 80 μM chloroquine. Peptide DNA condensates (10 μg of DNA of 0.2 ml HBM) were added dropwise to triplicate wells. After a 5 h incubation at 37° C., the medium was replaced with MEM supplemented with 10% FBS. After 24 h, cells were washed with ice-cold phosphate buffered saline (calcium and magnesium free) and then treated with 0.5 ml of ice-cold lysis buffer (25 mM) Tris chloride pH 7.8, 1 mM EDTA, 8 mM magnesium chloride, 1% Triton X-100, 1 mM DTT) for 10 min. […]
Lysis buffer (300 μl), sodium-ATP (4 μl of a 180 mM solution, pH 7, 4° C.) and cell lysate (100 μl, 4° C.) were combined in a test tube, briefly mixed and immediately placed in the luminometer. Luciferase relative light units (RLU) were recorded on a Lumat™ LB 9501 (Berthoid Systems, Germany) with 10 sec integration after automatic injection of 100 μl of 0.5 mM D-luciferin (prepared fresh in lysis buffer without DTT). […] Protein concentrations were measured by Bradford assay using bovine serum albumin as a standard (Bradford, 1976). […]

Cys-Trp-Lys17-Cys (CWKKKKKKKKKKKKKKKKKC) [Peptide II]
Particle Size Mean Diameter, Oxidized, 15° [1]: 31 nm
Particle Size Mean Diameter, Oxidized, 90° [1]: 42 nm
Particle Size Mean Diameter, Saline [1]: 257 nm
Particle Size Mean Diameter, Reduced [1]: 121 nm
sodium chloride concentration up to which DNA is protected from sonicative fragmentation [2]: 1.0 M
increase in luciferase gene expression relative to AlkCWK18 (COS 7 cells): 10 fold
125I-DNA uptake, % of dose (HepG2 cells): 8.7 % of dose
sodium chloride concentration up to which DNA condensates are stable [3]: 1 M
Particle Size (nm) [4]: 53 ± 16 nm
Zeta Potential (mV) [4]: 28 ± 9 mV
enhancement of gene expression over peptide 1 DNA condensates ([5]; in each cell line tested, charge ratio 4, 80 μM chloroquine): 10 to 40 fold

Alk-S-Cys-Trp-Lys18 (C(Carboxymethyl)WKKKKKKKKKKKKKKKKKK) [AlkCWK18]
Particle Size Mean Diameter, Oxidized, 15° [1]: 97 nm
Particle Size Mean Diameter, Oxidized, 90° [1]: 95 nm
Particle Size Mean Diameter, Saline [1]: 1215 nm
Particle Size Mean Diameter, Reduced [1]: 74 nm
sodium chloride concentration up to which DNA is protected from sonicative fragmentation [2]: 0.4 M
125I-DNA uptake, % of dose (HepG2 cells): 9.5 % of dose
sodium chloride concentration up to which DNA condensates are stable [3]: 0.4 M
Particle Size (nm) [4]: 64 ± 11 nm
Zeta Potential (mV) [4]: 26 ± 1 mV
lower gene expression in the absence of chloroquine relative to presence of 80 μM chloroquine ([5]; in each cell line): 10-15 fold
